We go through two proteins from patent publication US20090181003.

In series [1] the target is recombinant S6K1 (highly purified).
The target of series [2] is recombinant S6K2 (highly purified).
Series [3] concerns the target GST [GST: P08515].

recombinant S6K2 (highly purified), sequence (chain, as listed by the source): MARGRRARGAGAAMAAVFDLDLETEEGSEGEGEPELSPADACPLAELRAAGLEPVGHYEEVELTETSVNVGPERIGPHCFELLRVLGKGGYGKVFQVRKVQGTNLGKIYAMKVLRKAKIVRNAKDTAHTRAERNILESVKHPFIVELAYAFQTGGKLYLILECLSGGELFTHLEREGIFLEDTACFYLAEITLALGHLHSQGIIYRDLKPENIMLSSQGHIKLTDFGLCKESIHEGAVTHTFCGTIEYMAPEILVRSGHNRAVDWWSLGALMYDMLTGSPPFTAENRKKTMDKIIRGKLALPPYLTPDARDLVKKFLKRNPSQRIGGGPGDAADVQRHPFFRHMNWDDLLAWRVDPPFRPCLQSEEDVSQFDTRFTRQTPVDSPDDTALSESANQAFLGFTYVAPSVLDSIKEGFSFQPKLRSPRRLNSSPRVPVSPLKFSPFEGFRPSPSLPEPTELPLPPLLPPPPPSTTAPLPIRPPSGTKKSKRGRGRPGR
GST [GST: P08515], sequence (P08515 whole entry): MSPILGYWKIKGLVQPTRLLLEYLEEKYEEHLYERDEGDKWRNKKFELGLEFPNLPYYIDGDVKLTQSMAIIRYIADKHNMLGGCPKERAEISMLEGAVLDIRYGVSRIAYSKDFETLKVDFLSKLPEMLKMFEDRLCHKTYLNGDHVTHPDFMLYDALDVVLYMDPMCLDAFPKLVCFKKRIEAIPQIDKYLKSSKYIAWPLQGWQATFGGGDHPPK

B1: GST-P/CAF (protein)
chain: MSEAGGAGPGGCGAGAGAGAGPGALPPQPAALPPAPPQGSPCAAAAGGSGACGPATAVAAAGTAEGPGGGGSARIAVKKAQLRSAPRAKKLEKLGVYSACKAEESCKCNGWKNPNPSPTPPRADLQQIIVSLTESCRSCSHALAAHVSHLENVSEEEMNRLLGIVLDVEYLFTCVHKEEDADTKQVYFYLFKLLRKSILQRGKPVVEGSLEKKPPFEKPSIEQGVNNFVQYKFSHLPAKERQTIVELAKMFLNRINYWHLEAPSQRRLRSPNDDISGYKENYTRWLCYCNVPQFCDSLPRYETTQVFGRTLLRSVFTVMRRQLLEQARQEKDKLPLEKRTLILTHFPKFLSMLEEEVYSQNSPIWDQDFLSASSRTSQLGIQTVINPPPVAGTISYNSTSSSLEQPNAGSSSPACKASSGLEANPGEKRKMTDSHVLEEAKKPRVMGDIPMELINEVMSTITDPAAMLGPETNFLSAHSARDEAARLEERRGVIEFHVVGNSLNQKPNKKILMWLVGLQNVFSHQLPRMPKEYITRLVFDPKHKTLALIKDGRVIGGICFRMFPSQGFTEIVFCAVTSNEQVKGYGTHLMNHLKEYHIKHDILNFLTYADEYAIGYFKKQGFSKEIKIPKTKYVGYIKDYEGATLMGCELNPRIPYTEFSVIIKKQKEIIKKLIERKQAQIRKVYPGLSCFKDGVRQIPIESIPGIRETGWKPSGKEKSKEPRDPDQLYSTLKSILQQVKSHQSAWPFMEPVKRTEAPGYYEVIRFPMDLKTMSERLKNRYYVSKKLFMADLQRVFTNCKEYNPPESEYYKCANILEKFFFSKIKEAGLIDK
Consider B1, for which the “in vitro acetylation (incorporation of 14C labelled acetyl groups, autoradiography)” value in series [1] is “when S6K1 and S6K2 were incubated in the presence of GST-p300 HAT domain 4 or GST-P/CAF, ^14C labeled acetyl groups were indeed incorporated into the proteins”; in series [2], “when S6K1 and S6K2 were incubated in the presence of GST-p300 HAT domain 4 or GST-P/CAF, ^14C labeled acetyl groups were indeed incorporated into the proteins”.

B2: GST-p300 HAT domain 4 (protein)
chain: KPKRLQEWYKKMLDKAVSERIVHDYKDIFKQATEDRLTSAKELPYFEGDFWPNVLEESIKELEQEEEERKREENTSNESTDVTKGDSKNAKKKNNKKTSKNKSSLSRGNKKKPGMPNVSNDLSQKLYATMEKHKEVFFVIRLIAGPAANSLPPIVDPDPLIPCDLMDGRDAFLTLARDKHLEFSSLRRAQWSTMCMLVELHTQSQDRFVYTCNECKHHVETRWHCTVCEDYDLCITCYNTKNHDHKMEKLGLGLDDESNNQQAAATQSPGDSRRLSIQRCIQSLVHACQCRNANCSLPSCQKMKRVVQHTKGCKRKTNGGCPICKQLIALCCYHAKHCQENKCPVPFCLNIKQKLRQQQLQHRLQQAQMLRRRMASMQRTGVVGQQQGLPSPTPATPTTPTGQQPTTPQTPQPTSQPQPTPPNSMPPYLPRTQA
As for B2, the “in vitro acetylation (incorporation of 14C labelled acetyl groups, autoradiography)” value in series [1] was “when S6K1 and S6K2 were incubated in the presence of GST-p300 HAT domain 4 or GST-P/CAF, ^14C labeled acetyl groups were indeed incorporated into the proteins”; in series [2] it was “when S6K1 and S6K2 were incubated in the presence of GST-p300 HAT domain 4 or GST-P/CAF, ^14C labeled acetyl groups were indeed incorporated into the proteins”. In addition, the in vitro acetylation result in series [3] was “no acetylation of GST is seen under these conditions”.
